Results: patent publication US20240209044

Assays:
[1] = biological target: T1, ZAP, zeta activating peptide, the PKCzeta uORF-encoded peptide
T1 chain: MGPREARLQVHQLQTAGP

[2] = biological target: T2, ZIP, zeta inhibitory peptide, the pseudo-substrate peptide of the PKCzeta regulatory domain
T2 chain: SIYRRGARRWRKL

B1: PKCtheta, HA-tagged, immunoprecipitated from HEK293T lysate (protein)
chain: MSPFLRIGLSNFDCGSCQSCQGEAVNPYCAVLVKEYVESENGQMYIQKKPTMYPPWDSTFDAHINKGRVMQIIVKGKNVDLISETTVELYSLAERCRKNNGKTEIWLELKPQGRMLMNARYFLEMSDTKDMNEFETEGFFALHQRRGAIKQAKVHHVKCHEFTATFFPQPTFCSVCHEFVWGLNKQGYQCRQCNAAIHKKCIDKVIAKCTGSAINSRETMFHKERFKIDMPHRFKVYNYKSPTFCEHCGTLLWGLARQGLKCDACGMNVHHRCQTKVANLCGINQKLMAEALAMIESTQQARCLRDTEQIFREGPVEIGLPCSIKNEARPPCLPTPGKREPQGISWESPLDEVDKMCHLPEPELNKERPSLQIKLKIEDFILHKMLGKGSFGKVFLAEFKKTNQFFAIKALKKDVVLMDDDVECTMVEKRVLSLAWEHPFLTHMFCTFQTKENLFFVMEYLNGGDLMYHIQSCHKFDLSRATFYAAEIILGLQFLHSKGIVYRDLKLDNILLDKDGHIKIADFGMCKENMLGDAKTNTFCGTPDYIAPEILLGQKYNHSVDWWSFGVLLYEMLIGQSPFHGQDEEELFHSIRMDNPFYPRWLEKEAKDLLVKLFVREPEKRLGVRGDIRQHPLFREINWEELERKEIDPPFRPKVKSPFDCSNFDKEFLNEKPRLSFADRALINSMDQNMFRNFSFMNPGMERLIS
For B1, the “phosphorylation of MBP by PKC isoforms (32P-γATP in vitro kinase assay)” value (“phosphorylation of MBP by PKC isoforms” below) [1] was “the peptide had no effect on the phosphorylation of MBP by the PKC isoforms PKCeta (PKCη), PKCtheta (PKCθ), PKCgamma (PKCγ), and PKCalpha (PKCα)”.

B2: PKCepsilon, HA-tagged, immunoprecipitated from HEK293T lysate (protein)
chain: MVVFNGLLKIKICEAVSLKPTAWSLRHAVGPRPQTFLLDPYIALNVDDSRIGQTATKQKTNSPAWHDEFVTDVCNGRKIELAVFHDAPIGYDDFVANCTIQFEELLQNGSRHFEDWIDLEPEGRVYVIIDLSGSSGEAPKDNEERVFRERMRPRKRQGAVRRRVHQVNGHKFMATYLRQPTYCSHCRDFIWGVIGKQGYQCQVCTCVVHKRCHELIITKCAGLKKQETPDQVGSQRFSVNMPHKFGIHNYKVPTFCDHCGSLLWGLLRQGLQCKVCKMNVHRRCETNVAPNCGVDARGIAKVLADLGVTPDKITNSGQRRKKLIAGAESPQPASGSSPSEEDRSKSAPTSPCDQEIKELENNIRKALSFDNRGEEHRAASSPDGQLMSPGENGEVRQGQAKRLGLDEFNFIKVLGKGSFGKVMLAELKGKDEVYAVKVLKKDVILQDDDVDCTMTEKRILALARKHPYLTQLYCCFQTKDRLFFVMEYVNGGDLMFQIQRSRKFDEPRSRFYAAEVTSALMFLHQHGVIYRDLKLDNILLDAEGHCKLADFGMCKEGILNGVTTTTFCGTPDYIAPEILQELEYGPSVDWWALGVLMYEMMAGQPPFEADNEDDLFESILHDDVLYPVWLSKEAVSILKAFMTKNPHKRLGCVASQNGEDAIKQHPFFKEIDWVLLEQKKIKPPFKPRIKTKRDVNNFDQDFTREEPVLTLVDEAIVKQINQEEFKGFSYFGEDLMP
With B2 the “phosphorylation of MBP by PKC isoforms” value [1] was “enhanced the phosphorylation of PKC isoforms of the novel PKC sub-family of PKCzeta, PKCdelta and PKCepsilon”.

B3: PKCzeta, HA-tagged, immunoprecipitated from HEK293T lysate (protein)
chain: MPSRTGPKMEGSGGRVRLKAHYGGDIFITSVDAATTFEELCEEVRDMCRLHQQHPLTLKWVDSEGDPCTVSSQMELEEAFRLARQCRDEGLIIHVFPSTPEQPGLPCPGEDKSIYRRGARRWRKLYRANGHLFQAKRFNRRAYCGQCSERIWGLARQGYRCINCKLLVHKRCHGLVPLTCRKHMDSVMPSQEPPVDDKNEDADLPSEETDGIAYISSSRKHDSIKDDSEDLKPVIDGMDGIKISQGLGLQDFDLIRVIGRGSYAKVLLVRLKKNDQIYAMKVVKKELVHDDEDIDWVQTEKHVFEQASSNPFLVGLHSCFQTTSRLFLVIEYVNGGDLMFHMQRQRKLPEEHARFYAAEICIALNFLHERGIIYRDLKLDNVLLDADGHIKLTDYGMCKEGLGPGDTTSTFCGTPNYIAPEILRGEEYGFSVDWWALGVLMFEMMAGRSPFDIITDNPDMNTEDYLFQVILEKPIRIPRFLSVKASHVLKGFLNKDPKERLGCRPQTGFSDIKSHAFFRSIDWDLLEKKQALPPFQPQITDDYGLDNFDTQFTSEPVQLTPDDEDAIKRIDQSEFEGFEYINPLLLSTEESV
With B3 the “PKCzeta phosphorylation of MBP (32P-γATP in vitro kinase assay)” value [1] was “did not inhibit PKCzeta phosphorylation of MBP, rather significantly increased the phosphorylation on MBP”, the “kinase activity (phosphorylation of MBP, 32P-γ-ATP in vitro kinase assay, dose series of peptide)” value [1] was “the ZAP peptide activates the kinase activity of both PKCzeta and PKMzeta” and the “phosphorylation of MBP by PKC isoforms” value [1] was “enhanced the phosphorylation of PKC isoforms of the novel PKC sub-family of PKCzeta, PKCdelta and PKCepsilon”. For the same protein, the “kinase activity (phosphorylation of MBP, 32P-γ-ATP in vitro kinase assay, dose series of peptide)” value [2] was “the known PS ZIP peptide inhibits their activity”.
